Data set [1] deals with the molecule itself. Briefly: 15N relaxation (rotational correlation time against concentration); 15N-XIAP-UBA at 0.16-1.9 mM; T1 and T2 at 298 K; non-linear fit of the rotational correlation time; dimer to monomers.
The target in data set [2] is T1, human ubiquitin (mono-ubiquitin) (human, UniProt P0CG48 1-76).
T1 construct: ubiquitin, human, the mature 76-residue protein (C-terminal diglycine Gly75-Gly76); Used unlabelled or 15N-labelled
Nature of the data set: NMR titration; 15N-labelled XIAP-UBA (0.5 mM, about 0.3 mM at the last point, predominantly monomeric) titrated with unlabelled monoUb (to molar ratio 5.5), K48-Ub2 or LL-Ub2 (to 2.5); 1H-15N HSQC chemical shift perturbation; 298 K; 20 mM BisTris-HCl pH 6.7, 150 mM NaCl, 5 mM DTT. The settings on record: both partners purified.

The target in data set [3] is T2, linear-linked diubiquitin (UniProt P0CG48 1-76; P0CG48 1-76).
T2 construct: ubiquitin, mature 76-residue protein, first unit; its C-terminal Gly is joined to the N-terminal Met of the next unit; ubiquitin, mature 76-residue protein, second unit; Unlabelled; also called LL-Ub2; linear-linked Ub2
The data set is described as above. Conditions: both partners purified.

B1: XIAP-UBA (UBA domain of X-linked inhibitor of apoptosis protein, residues 365-423) (domain or fragment, human, UniProt P98170 365-423, looked up)
chain: RIDDTIFQNPMVQEAIRMGFSFKDIKKIMEEKIQISGSNYKSLEVLVADLVNAQKDSMQ
notes: PDB 2KNA holds the longer construct 357-449; Used 15N- or 13C/15N-labelled or unlabelled; The tags are separated from XIAP-UBA by a thrombin site (LVPRG); also called XIAP UBA domain; XIAP-UBA WT; source: E. coli BL21 (DE3), purified
By Kd is commonly meant the free concentration of one partner at which half of the binding sites on the other are occupied at equilibrium, for simple one-to-one binding. The stoichiometry N is a count of units in the complex or per binding partner. With B1, the results for the Kd in data set [1], in data set [2] and in data set [3] were ~900 µM, 249 ± 19 µM and 59 ± 11 µM, respectively. Moreover, the “stoichiometry N” value in data set [1] is 2.

(Values after publication PMC3240630, “Structural Analysis of the UBA Domain of X-linked Inhibitor of Apoptosis Protein Reveals Different Surfaces for Ubiquitin-Binding and Self-Association” (PLoS ONE, 2011).)
